Measured values published in article PMC9135708 (2022).

Columns and labels:
Assay in all cases: BLI
TY01 = target: TY01
TY19 = target: TY19
TY07 = target: TY07
AKBR-5 = target: AKBR-5
AKBR-1 = target: AKBR-1

Binder | Kd (TY01) [nM] | koff (TY01) [s⁻¹] | Kd (TY19) [nM] | koff (TY19) [s⁻¹] | Kd (TY07) [nM] | koff (TY07) [s⁻¹] | Kd (AKBR-5) [nM] | koff (AKBR-5) [s⁻¹] | Kd (AKBR-1) [nM] | koff (AKBR-1) [s⁻¹]
Plasmodium yoelii TRAP ectodomain (PyTRAP) (domain or fragment, site-specific biotinylation using BirA ligase, when required) NGQETLDEIKYSEEVCTEQIDIHILLDGSGSIGYSNWKAHVIPMLNTLVDNLNISNDEINVSLTLFSTNSRELIKLKGYGSTSKDSLRFILAHLQNNYSPNGNTNLTSALLVVDTLINERMYRPDAIQLAIILTDGIPNDLPRSTAVVHQLKRKHVNVAIIGVGAGVNNEYNRILVGCDRYAPCPYYSSGSWNEAQNMIKPFLTKVCQEVERIAHCGKWEEWSECSTTCDEGRKIRRRQILHPGCVSEMTTPCKVRDCPQIPIPPVIPNKIPEKPSNPEEPVNPNDPNDPNNPNNPNNPNNPNNPNNPNNPNNPNNPNNPNNPNNPNNPNNPNNPNNPNNPNNPNNPNNPNNPNNPNNPNDPSNPNNPNPKKRNPKRRNPNKPKPNKPNPNKPNPNEPSNPNKPNPNEPSNPNKPNPNEPSNPNKPNPNEPSNPNKPNPNEPLNPNEPSNPNEPSNPNAPSNPNEPSNPNEPSNPNEPSNPNEPSNPNEPSNPKKPSNPNEPSNPNEPLNPNEPSNPNEPSNPNEPSNPEEPSNPKEPSNPNEPSNPEEPNPEEPSNPKEPSNPEEPINPEELNPKEPSNPEESNPKEPINPEESNPKEPINPEDNENPLIIQDEPIEPRNDSNVIPILPIIPQKGNNIPSNLPENPSDSEVEYPRPNDNGENSNNTMKSKKNIPNEPIPSPGDNPYKGHEERIPKPHRSNDDYVYDNNVNKNNKDEPEIPNNEYEEDKNKNQSKSNNGYK | 1.65 | 0.000498 | 307 | 0.0495 | 26.5 | 0.00397 |  |  |  | 
Plasmodium falciparum TRAP ectodomain (PfTRAP) (domain or fragment, site-specific biotinylation using BirA ligase, when required) RDVQNNIVDEIKYSEEVCNDQVDLYLLMDCSGSIRRHNWVNHAVPLAMKLIQQLNLNDNAIHLYVNVFSNNAKEIIRLHSDASKNKEKALIIIRSLLSTNLPYGRTNLTDALLQVRKHLNDRINRENANQLVVILTDGIPDSIQDSLKESRKLSDRGVKIAVFGIGQGINVAFNRFLVGCHPSDGKCNLYADSAWENVKNVIGPFMKAVCVEVEKTASCGVWDEWSPCSVTCGKGTRSRKREILHEGCTSEIQEQCEEERCPPKWEPLDVPDEPEDDQPRPRGDNSSVQKPEENIIDNNPQEPSPNPEEGKDENPNGFDLDENPENPPNPDIPEQKPNIPEDSEKEVPSDVPKNPEDDREENFDIPKKPENKHDNQNNLPNDKSDRNIPYSPLPPKVLDNERKQSDPQSQDNNGNRHVPNSEDRETRPHGRNNENRSYNRKYNDTPKHPEREEHEKPDNNKKKGESDNKYK |  |  |  |  |  |  | 52.9 | 0.00611 | 194 | 0.00368
